According to patent publication US12630632B2, “Bispecific HER2 and CD3 binding molecules” (Memorial Sloan Kettering Cancer Center, priority 2017, dated 2026):

Test system: naïve T cells
Test: T cell proliferation (WST-8)
Type: cell-based, human
Conditions: 67 nM antibody, 6 days
Experimental: For T cell proliferation, naïve T cells were purified from human PBMC using Pan T cell isolation kit (Miltenyi Biotec). 2×10^5 purified T cells were mixed with different antibodies in 96-well cell culture plate to a final volume of 250 μl/well. T cells were cultured and maintained in RPMI-1640 supplemented with 10% FBS in 37° C. for 6 days. T cell proliferation was quantitated using the WST-8 kit as described above.

B1: huOKT3 Fab: monovalent Fab prepared from huOKT3 IgG1 (antibody, V domains shown)
VH: QVQLVQSGGGVVQPGRSLRLSCKASGYTFTRYTMHWVRQAPGKGLEWIGYINPSRGYTNYNQKFKDRFTISRDNSKNTAFLQMDSLRPEDTGVYFCARYYDDHYCLDYWGQGTPVTVSS
VL: DIQMTQSPSSLSASVGDRVTITCSASSSVSYMNWYQQTPGKAPKRWIYDTSKLASGVPSRFSGSGSGTDYTFTISSLQPEDIATYYCQQWSSNPFTFGQGTKLQITR
T cell proliferation in the absence of tumor targets: negligible effects
